Data published in patent US20110201118.

What was measured:
[1] = test system: TAL/GFP-L dTALEN (synthetic construct); experiment: cell_activity; settings: paired with TAL/GFP-R; 5/10 clones at 0.5 ug/well in HEK293T; 0/4 without TALEN
[2] = test system: TAL/GFP-R dTALEN (synthetic construct); experiment: cell_activity; settings: paired with TAL/GFP-L; 5/10 clones at 0.5 ug/well in HEK293T; 0/4 without TALEN

Substance | activity (% clones with deletions) [1] | activity (% clones with deletions) [2]
eGFP target, TAL/GFP-L half-site | 50 | 
eGFP target, TAL/GFP-R half-site |  | 50
